Data reported in publication PMC6135941.

Biological target: 62 kDa active MMP-2
Test: enzyme inhibition kinetics

Ki: 0.154 nM
Substance: TIMP-2-His6 Y90E expressed in HEK293H cells (from UniProt P16035 27-220) (natural protein)
